According to doi:10.1101/2024.02.23.581811 (bioRxiv, 2024):
Substitutions are numbered along the chain they refer to. One block for each binder: values may come before it.

Molecular target: β2-adrenergic receptor (Homo sapiens (Human)., UniProt P07550)
Assay: linear dichroism

binding result: binds
B1: NB80-eGFP-HRas (VHH)
VHH: QVQLQESGGGLVQAGGSLRLSCAASGSIFSINTMGWYRQAPGKQRELVAAIHSGGSTNYANSVKGRFTISRDNAANTVYLQMNSLKPEDTAVYYCNVKDYGAVLYEYDYWGQGTQVTVSS

binding result: binds
B2: NB80Lite-eGFP-HRas (VHH)
VHH: B1 VHH with H52S, S56G, T57S, N58A
